Assay results from patent publication US20260242478A1 (published 2026).
Where no end group is shown, it is not given here.

B1: Phage-278 (peptide)
peptide: MDWCPRSIWYLCFN
modifications: cysteine pairing not given here; also: displayed on phage as fusion to pIII, fusion limits and linker not given here
notes: Clonal phage of the Peptide-9 library, tested as crude phage supernatant; not shown: pIII of the bacteriophage
B2: Phage-265 (peptide)
peptide: MDWCPRFMWDLCFA
modifications: cysteine pairing not given here; also: displayed on phage as pIII fusion, fusion limits and linker not given here
notes: as for B1

Key:
[1] = target: T1, anti-CD28 scFv (VH - linker 1 - VL) (biotinylated (site not given)); experiment: phage ELISA as above; wells pre-incubated with soluble CD28 as competitor;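 note: crude clonal phage supernatants tested, with bound phage detected by HRP-conjugated anti-M13 antibody, and reference wells given blocking buffer without CD28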
T1 construct: Biotinylated scFv captured on neutravidin coated plates in the panning ELISA
T1 sequence (scFv, as listed by the source): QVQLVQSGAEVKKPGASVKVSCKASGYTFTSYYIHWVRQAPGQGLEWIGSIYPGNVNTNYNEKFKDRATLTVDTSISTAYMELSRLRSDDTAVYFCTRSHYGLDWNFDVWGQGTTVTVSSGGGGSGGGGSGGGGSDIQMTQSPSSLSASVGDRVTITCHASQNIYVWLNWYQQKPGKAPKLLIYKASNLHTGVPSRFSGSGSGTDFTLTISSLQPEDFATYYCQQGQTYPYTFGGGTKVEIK

[2] = target: T2, anti-CD28 scFv (VH - linker 1 - VL) (biotinylated (site not stated)); experiment: phage ELISA; biotinylated anti-CD28 scFv on neutravidin plate, clonal phage supernatant, anti-M13 HRP detection;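 note: before phage addition, wells were pre-incubated with blocking buffer plus soluble CD28 protein, or blocking buffer only, with no wash in between, signal reflects phage remaining bound after washing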
T2 sequence (scFv, as listed by the source): as above

[3] = target: T2, anti-CD28 scFv (VH - linker 1 - VL); experiment: phage ELISA as above, wells pre-incubated with soluble CD28 as competitor
Description: (§1) Clonal phage were harvested as crude supernatants and screened via standard enzyme linked immunosorbent assays (ELISAs). […] Prior to the addition of clonal phage, wells were incubated with blocking buffer and CD28 soluble protein or blocking buffer alone. Without washing or aspirating, clonal phage supernatants were then added to the wells and incubated for a short time. Wells were then washed followed by detection of bound phage using a horse radish peroxidase conjugated anti-M13 antibody.

[4] = target: T3, Anti-CD28 scFv (VH - linker 1 - VL) (biotinylated (site not stated)); experiment: phage ELISA as above, wells pre-incubated with soluble CD28 (competitor);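 note: ELISA of crude clonal phage supernatants added to wells pre-treated with soluble CD28 in blocking buffer, bound phage read out with HRP-conjugated anti-M13 antibody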
T3 construct: Captured as biotinylated scFv on neutravidin plates in the panning ELISA
T3 sequence (scFv, as listed by the source): as above

[5] = target: T3, Anti-CD28 scFv (VH - linker 1 - VL); experiment: phage ELISA: biotinylated anti-CD28 scFv on neutravidin plate, clonal phage supernatant, anti-M13-HRP detection;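 note: competition format: before phage supernatant was added, wells were preincubated with soluble CD28 protein or with blocking buffer only, and phage were added without an intervening wash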
Description: as §1

[6] = target: T4, Anti-CD28 scFv (VH - linker 1 - VL) (biotinylated (site not stated)); experiment: phage binding ELISA on captured anti-CD28 scFv; wells pre-incubated with soluble CD28 protein (competitor)
T4 sequence (scFv, as listed by the source): as above

[7] = target: T4, Anti-CD28 scFv (VH - linker 1 - VL); experiment: phage binding ELISA; biotinylated anti-CD28 scFv on neutravidin plate, clonal phage supernatant, anti-M13 HRP detection
Description: as §1

[8] = target: Anti-CD28 scFv (VH - linker 1 - VL) (biotinylated (site not given)); experiment: phage binding ELISA on anti-CD28 scFv plate; wells pre-incubated with soluble CD28 as competitor;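 note: clonal phage supernatants tested, bound phage read out with an HRP-linked anti-M13 antibody, reference wells received blocking buffer lacking CD28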
Chain of Anti-CD28 scFv (VH - linker 1 - VL) (biotinylated (site not given)) (scFv, as listed by the source): as above

[9] = target: T5, Anti-CD28 scFv (VH - linker 1 - VL) (biotinylated (site not stated)); experiment: phage ELISA as above, wells pre-incubated with soluble CD28 (competitor);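 note: ELISA of crude clonal phage supernatants added to wells pre-treated with soluble CD28 in blocking buffer, bound phage read out with HRP-conjugated anti-M13 antibody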
T5 construct: Biotinylated scFv captured on neutravidin coated plates in the panning ELISA
T5 sequence (scFv, as listed by the source): as above

| Binder | CD28 scFv signal [2] | CD28 scFv signal in presence of CD28 [3] | other results |
| --- | --- | --- | --- |
| MDWCPRDLWHECFN [Phage-103] |  |  | CD28 scFv signal in presence of CD28 [1]: 0.218 |
| MDWCPRDLWAECFN [Phage-107] |  |  | CD28 scFv signal in presence of CD28 [1]: 0.207 |
| MDWCPIYLWDECFN [Phage-106] |  |  | CD28 scFv signal in presence of CD28 [1]: 0.215 |
| IGKLTLCLNADLVI [Phage-187] | 0.116 | 0.1 |  |
| MDWCPRYMWSDCFF [Phage-394] |  |  | CD28 scFv signal in presence of CD28 [4]: 0.377; CD28 scFv signal [5]: 2.28 |
| MDWCPAYLWAECFS [Phage-175] | 0.64 | 0.12 |  |
| MDWCPSDMWHECYA [Phage-194] | 2.47 | 0.2 |  |
| MDWCPMYLWNECFN (peptide, not shown: large carriers) [Phage-65 clonal phage peptide] |  |  | CD28 scFv signal in presence of CD28 [6]: 0.471; CD28 scFv signal [7]: 2.61 |
| MDWCPSDLWHECFH [Phage-176] | 0.629 | 0.164 |  |
| MDWCPMNLWSECFN [Phage-173] | 0.67 | 0.124 |  |
| MDWCPWILWNECFN [Phage-179] | 0.581 | 0.137 |  |
| B1 |  |  | CD28 scFv signal in presence of CD28 [8]: 1.34 |
| MDWCPRYMWYQCFS [Phage-196] | 2.36 | 0.357 |  |
| IDWCPRDLWALCFN [Phage-183] | 0.37 | 0.129 |  |
| MDWCPRAMWDYCFY [Phage-397] |  |  | CD28 scFv signal in presence of CD28 [4]: 0.339; CD28 scFv signal [5]: 2.11 |
| MDWCPRALWHECFT [Phage-108] |  |  | CD28 scFv signal in presence of CD28 [1]: 0.191 |
| MDWCPKHMWFMCFN [Phage-195] | 2.4 | 0.372 |  |
| MHWCPTYMWSECFA [Phage-400] |  |  | CD28 scFv signal in presence of CD28 [4]: 0.161; CD28 scFv signal [5]: 1.84 |
| VDWCPRYLWHVCYN [Phage-189] | 0.065 | 0.061 |  |
| DVWCPKYMWSLCFN [Phage-192] | 2.53 | 0.418 |  |
| LDWCPRDLWHVCFF [Phage-178] | 0.61 | 0.105 |  |
| B2 |  |  | CD28 scFv signal in presence of CD28 [8]: 0.725 |
| MDWCPMSMWAFCFD [Phage-405] |  |  | CD28 scFv signal in presence of CD28 [4]: 0.16; CD28 scFv signal [5]: 1.41 |
| MDWCPRDLWDLCFF [Phage-104] |  |  | CD28 scFv signal in presence of CD28 [1]: 0.156 |
| MDWCPMDMWVNCFN [Phage-193] | 2.52 | 0.277 |  |

| Binder | CD28 scFv signal [2] | CD28 scFv signal in presence of CD28 [3] | other results |
| --- | --- | --- | --- |
| MDWCPKDMWAECFN [Phage-395] |  |  | CD28 scFv signal in presence of CD28 [4]: 0.457; CD28 scFv signal [5]: 2.11 |
| MDWCPKHLWNECFN [Phage-174] | 0.663 | 0.105 |  |
| MDWCPFDMWADCFF [Phage-391] |  |  | CD28 scFv signal in presence of CD28 [4]: 0.215; CD28 scFv signal [5]: 2.53 |
| MDWCPRSMWDSCFN [Phage-399] |  |  | CD28 scFv signal in presence of CD28 [4]: 0.142; CD28 scFv signal [5]: 2.02 |
| MDWCPRYLWAECFY [Phage-102] |  |  | CD28 scFv signal in presence of CD28 [1]: 0.354 |
| MDWCPVSLWDHCFN [Phage-177] | 0.616 | 0.1 |  |
| MDWCPRYLWNVCFN [Phage-105] |  |  | CD28 scFv signal in presence of CD28 [1]: 0.57 |
| TDWCPRDMWYLCFN [Phage-396] |  |  | CD28 scFv signal in presence of CD28 [4]: 0.301; CD28 scFv signal [5]: 2.11 |
| MHWCPRSLWNECYF [Phage-182] | 0.456 | 0.115 |  |
| MDWCPRDMWTSCFN [Phage-404] |  |  | CD28 scFv signal in presence of CD28 [4]: 0.179; CD28 scFv signal [5]: 1.41 |
| MDWCPPYLWYECFA [Phage-172] | 0.692 | 0.094 |  |
| MDWCPRDMWAECFF [Phage-190] | 2.69 | 2.26 |  |
| MDWCPSYLWDQCFF [Phage-188] | 0.083 | 0.079 |  |
| MSWCPWDMWNECFA [Phage-403] |  |  | CD28 scFv signal in presence of CD28 [4]: 0.108; CD28 scFv signal [5]: 1.52 |
| MDWCPRDMWYECFN [Phage-191] | 2.56 | 0.235 |  |
| QDWCPTYLWHHCFN [Phage-186] | 0.123 | 0.122 |  |
| MHWCPRYLWDECFN [Phage-180] | 0.55 | 0.127 |  |
| MYWCPRDLWDVCFN [Phage-181] | 0.512 | 0.102 |  |
| MDWCPRHMWHECFH [Phage-402] |  |  | CD28 scFv signal in presence of CD28 [4]: 0.171; CD28 scFv signal [5]: 1.81 |
| MDWCPRNMWNECFF [Phage-398] |  |  | CD28 scFv signal in presence of CD28 [4]: 0.43; CD28 scFv signal [5]: 2.1 |
| MDWCPSDMWANCFF [Phage-389] |  |  | CD28 scFv signal in presence of CD28 [9]: 0.316 |
| MDWCPRSLWHYCFA [Phage-101] |  |  | CD28 scFv signal in presence of CD28 [1]: 0.338 |
| MDWCPRDMWFECFN [Phage-393] |  |  | CD28 scFv signal in presence of CD28 [4]: 0.778; CD28 scFv signal [5]: 2.42 |
| MHWCPINLWNECFS [Phage-184] | 0.316 | 0.098 |  |
| MDWCPLDMWVLCFA [Phage-401] |  |  | CD28 scFv signal in presence of CD28 [4]: 0.169; CD28 scFv signal [5]: 1.84 |
